Data: the DeepSol protein solubility set

test: soluble on expression in E. coli; label from the status in PepcDB or PDB records

| Sequence | soluble on expression in E. coli |
| --- | --- |
| MEKITFEQVKEAVFHEKMSNGLQVYLLPKQGFSKTYAVFTTNYGAIDNNFVPIGETEFTKVPDGIAHFLEHKMFEKEDGDVFFKFGEKGAFTNAFTSFTKTAYLFSSTSRVEENLETLIDFVQEPYFTEETVEKEKGIIGQEIRMYDDDPDFRAYFGVIENMYHNHPVKIDIAGTVESIAEINKDLLYLCYNTFYHPSNMVLFVVGNLEPEEMMNQIRANQAKKDFTEAAPIKRHFPEEPKTVAVKERKIHFPVQIAKNMVGIKEDIGSLEGQVALKQEIIGDVALEMLFGTTSDTYLELYNQGIIDDSFGYDYTLQDSFSFVLVGGDAKDPDMQTTKIIEAIQAAAKNGLNEADLALVKRKRIGQFLRSLNSPEFIANQFSQYVMKSASLFDILPLMETVTLEEVNNFVKNLDSEERTTSFQLLPEK | not soluble |
| MSFMPAIVGPIAINSISGGVVNFGDSFYLSPKSSSKSALGSGAGNTGDFLLLNNAVNATNYIDPDVNDQDMVGNGLEHHHHHH | not soluble |
| GHMGKPDISAKDLRNIMYDHLPGFGTAFHQLVQVICKLGKDSNSLDIIHAEFQASLAEGDSPQCALIQITKRVPIFQDAAPPVIHIRSRGDIPRACQKSLRPVPPSPKIDRGWVCVFQLQDGKTLGLAI | soluble |
| MGSDKIHHHHHHMTNETTTSILEYADTHLKFSMEDLFAYLHKKIGINKSSLAWYLFKLVNENKLVRTGRGMYARILKPSFAPQPAEEVKEVYDLLTTHFPFAKFCIYQGEIIAPLQHHLSPNRIIYVETDRGTAETVFHLLKDDYQDVYLRPNKEMIYRYVDMDSRVFIVKNLVSEAPLQHISGVPIPTLEKLLVDILRDVDFFYLQGSESERIIENAFNLYAINRSRLFRYAGRRKVKEELSTILENLNIV | not soluble |
| MSVKMKKCSREDLQTLQQLSIETFNDTFKEQNSPENMKAYLESAFNTEQLEKELSNMSSQFFFIYFDHEIAGYVKVNIDDAQSEEMGAESLEIERIYIKNSFQKHGLGKHLLNKAIEIALERNKKNIWLGVWEKNENAIAFYKKMGFVQTGAHSFYMGDEEQTDLIMAKTLILEHHHHHH | soluble |
| MSNIYDSANELSRGLRGLPEYKAVKAAKDAIAADAEASKIFTDYLAFQEEIQKLAQTGQMPDASFQAKMEGFGKQIQGNSLLSEFFTKQQQLAIYLSDIEKIVFEPVSELLK | soluble |
| MSLLNSPLAERIRPQNLSEYLSQNHLVGERGTLRQHILNGTIPSLILWGPPGTGKTTLANIIAQESKRPFYTLSAINSGVKDVREVIDKAKSAGGLFTAKNPILFIDEIHRFSKSQQDSLLAAVEKGWVTLIGATTENPSFEVIPALLSRCQVYVLDAFAKADLEQLLHRAMKIDEVLSIKDITIQETEALLRISGGDARKLLNIFELVINSQPSGPIVITNELVFEQVQSNPARYDKTGEQHYDIISAFIKSIRGSDPNAAVYWLARMIEGGEDLKFIARRMLILASEDIGNANPTALIMANNTFQAVSTIGYPESRIILSQCAIYLATSIKSNASYLAIGQAQQIVKQTGDLPVPLGLRNAPTKLMKELGYGQEYKYAHDHPGNFAQFDFLPTEISGTKIFNPGNNPREQAQREFLEKRWKEHYDYKPSKGEGHHHHHH | soluble |
| MGSDKIHHHHHHMNRPLFDLDLLRALVMVADCGSFTTASARLHSTQSTVSQKVRRLEEIAGHRLLDRGTRDVRPTDAGVTVLSYARRMIALNDEMLEALSGATVALTIRLGVPDDFAAGRTTHALAAFKRDHPQVKLEVTCGLSRDICAAYDRGELDLVLIKQRRDSREAVVRWPEKLRWIDSARHPTIELDPVPLVVFPPRGLYRDDMIKAIEERGRRWRISFTTSSLSGIQAAVADGLGISVLPARAVTDDHVVLTDEHGGFAPIGNMDIAILHRPTADPMVSELTKALAAMLEHEPE | not soluble |
| MEIEVTPVDILLQLVKMGKVDPWNIDIVDLTEKYIKMLREMQELDLRISARAILAAAILVRMKSEALLNEDSREQEEKEEERIRVEVDPLVPPLRRVERYYTLDDLIDALMEALEEAERRKPKKKKKVEIDEEIFVIDDFRVDIEKYVEELYKVVKKIYEKTGTPIKFWDLVPDVEPKIIARTFLYLLFLENMGRVEIIQEEPFGEILVVPM | soluble |
| GPGSMSLLKGKEVEVTQDDQRRICIFARMHRRRKELTATITRLKEQAAKLSDASDELMIADGAMYLFGETFVAIDNDEAGEWLAKEQAQLQRDQETTEEELKLVESQLSDLKAKLYASLGSQVYLEDE | soluble |
| MGSDKIHHHHHHMNEMWLHRADLAESAINERHASRLWMLPRTNLAVVAWPPTAKERLFYRWHYWWQAHYLDCLIDAASRRTTKARKQRIRDTIVGIRLRNLGRLTKNNYYDDKSWLALALDRERRLNKRAKREYLRVLEGNIAAGQDDIQGVLPWRVGEHFFNVPTNGPAAIMLARNGEVEQARKLVDWIFDNLINDKGLVMDGLRMSMRGPEIVDPVYPYCQGVVIGACIEIAEALPFEESVQYLAHARAVIHAVAKEMATPEGVINAATGDGDGGLFKGILMRYLADAAVRLPEDGPANIATKKIAKRLVMASAESVWEHRLEVDGLPVFATDWCDDARLPHNYGVGGSALSDIVRVVRIDERDLSVQLSGWMLLEAAARVSLVD | not soluble |
| MPAIEVIRSAKRTKTVQARIVDGQIQVRIPARMSKAEEEKAVGEIVAKLKRRTQSAVSSDADLIERAHKLNKTVLEGRARVESIRWVSNQKGRWGSCTVATAEIRISDRLKHVPDYVLDAVLVHELTHTFIAGHSAEFWEWADKTPLAERAKGYLEAYQRWGLEHHHHHH | soluble |
| MKCSKCGREAVYFAKYEGKYYCHKHFNEMVESKVKRTIRKYRMIKKGERIGVAVSGGKDSVVLLHLLAKLRKKFPFEIVAITIDEGIKGYRDKSIKVAKKNAELLGVEHHIYRFKDYIGFTLDETVEIMGARGERLGACSYCGVWRRWLLNKAAEELKVDKLALGLNLDDEVQMFLMNLMRGDVARLGRTGPYYEVIHEGLVPRIKPLREVPEKEIVLYAVLNNIEVDLSECPYAVEAFRAEIRDWLNEMEEKHPGTKYQLLRSYDKIFPLLAKTYAKKVKLNRCKICGQPTSGEICKACQFRLQVKERAEKLKFSLSQR | soluble |
| MSLGEPMKQEKQQFIKTDWTIDMINRRQFEKYAIDILTATKDIHRGGWVERIDNKAWQYVRVYENGDIEVLITLQIIRFHKYFDTPVWLQFNPNHLLPADYVQLDHVMKYVDHSHLTRADLANDIYNINLQRYDFGLFGVTRDIYRSLSGDLETRYWGRRKSERQIRLYDKMREMKKHGKADDIPDGITDWWRLEFQFRGGKVESWQEEVMDKMQSFHVLAVDDNDDLSEIDKAILARVNADKFDFKRVGKRYAAKIRKMVRENVGFDTTVAELSLKTFNEQKDELQRQLDSMLAKYNIGAQTEEMTAYFEEELKQTGNLDFSVVESESALERNVIRNIAKTWREENSLTHRTNTEGHHHHHH | not soluble |
| GPGSMDPTLKELLHANLEWIFVGGKGGVGKTTTSCALATLFATTPISDAASPGGTRPRRVLLISTDPAHNLSDAFNQRFGPHPTPVKGLEESLAAMEVDPKNFTHGALMSSLTGAKSDGSASSLSAEAEADAAQHTASFARIGAVLKEAARTMPGIDEISVFAEILHYVRTLFYDLLIFDTAPTGHTLRLLALPQTLSSTFDKLMSLEGLAPMIEAASHLIGTNLGALGGACGDTAGSCEQATAAPSLSSAAPGEGSAAAASSQSRWCITADEVRSTALHWRQTMEEVQARFNDPNRTSFVCVCIAEFLSVYETERLVQELMKYNIGCDSIVVNQLVLKPSSEPPCRMCSARQKIQAKYLEQIDLLYEDFHVVKMPLLSDEVRGVPALKKFARFLQEPYSPDTHGYIDVQEPC | not soluble |
| MSKIADDQNFNDEEENFAKLFKKELEKEETLEKGTIKEGLVVSINENDGYAMVSVGGKTEGRLALNEITDEKGQLLYQKNDPIIVHVSEKGEHPSVSYKKAISQQKIQAKIEELGENYENAIIEGKIVGKNKGGYIVESQGVEYFLSRSHSSLKNDANHIGKRVKACIIRVDKENHSINISRKRFFEVNDKRQLEVSKELLEATEPVLGVVRQITPFGIFVEAKGIEGLVHYSEISHKGPVNPEKYYKEGDEVYVKAIAYDAEKRRLSLSIKATIEDPWEEIQDKLKPGYAIKVVVSNIEHYGVFVDIGNDIEGFLHVSEISWDKNVSHPNNYLSVGQEIDVKIIDIDPKNRRLRVSLKQLTNRPFDVFESKHQVGDVLEGKVATLTDFGAFLNLGGVDGLLHNHDAFWDKDKKCKDHYKIGDVIKVKILKINKKDKKISLSAKHLVTSPTEEFAQKHKTDSVIQGKVVSIKDFGVFINADGIDVLIKNEDLNPLKKDEIKIGQEITCVVVAIEKSNNKVRASVHRLERKKEKEELQAFNTSDDKMTLGDILKEKLLEHHHHHH | soluble |
| MLPDADSKDQLVTIIQSVKPPTVPPHRSHDPANNLKRTDPYQFGSRYLEEGDDVFEFNAWDHVEPDDEFKAFAEVQYAKQRESPVSDFDKQRFNKDPAKWWNLFYKNNTSNFFKDRKWLRQEFPVLAEVTQKGAGRKVVLEVGAGAGNTAFPLITHNKNEELMVHACDFSKTAVQVMRESEHYNPKFISADVWDVTAVPDEENNGLPPGLTEGSVDVVILIFIFSALAPSQWDQAIRNVYRVLKPGGLVLFRDYGRGDLAQVRFKKGRYMDENFYVRGDGTRVYFFEKEQLEKMWGTWTPEKGLQMAEDNSIVAESEGAFDVEKIGVDRRLIVNRQRKLKMYRCWIQAHYRKRETPAAVEAEKADS | not soluble |
| MSLYKIGELSKIVNLSIETIRYYEKIRLIPKPERFNNRYKKYSEMYIYRLKIIIKAKNYGFTLHEISNFLSEVSTSSIEDIDLSSTIMNKVQQIEKECERLNYKKNQLLKFEEEINDLQCPVLNRIINEKNEGHHHHHH | soluble |
| MASPSASADDVKLTADGKICLDDPAEFLKRKPKKSILKMKQDSSLEGKDGRAHFDEMNILATYHPTDKDYGSMKIDEPKTPYHHSDGESECDEGVLGVPTTRPRRVSLGNAIDPEKVAEGLAHPESGKSLSSAEDSEDEADLTEEQRAHRRDFEKKRRAHYNEGAALKHHPELEDDEEEATAAAAGAGGNMEH | not soluble |
| MRALPICLVALMLSGCSMLSRSPVEPVQSTAPQPKAEPAKPKAPRATPVRIYTNAEELVGKPFRDLGEVSGDSCQASNQDSPPSIPTARKRMQINASKMKANAVLLHSCEVTSGTPGCYRQAVCIGSALNITAKLEHHHHHH | not soluble |
| MKNMIKAASLGLIILSSSMMANAAEAAQKIGYINTAQVFQALPQREVVLQKMQEEFKDKAAELQAIQADAKTKIEKLKRDGQLMGQDEVEKLRIEIGQLDSKYKIKAQALEQASARREAEEKQKLFKVIQDAVKKVAEKEGYDIVLDTSSMQYGKPEHNLSEKVIKAIK | not soluble |
| MQSRKRLDAELVRRKIARSREQAVEMIKDGRVHVQGFVAKKPATQVTPEASIRVEDAGLDDWASRGAHKLLGALAEFKSKGLNVSGRRALDAGASTGGFTDVLLRESASEVVAVDVGYGQLIWRLQNDARVKVLDRTNIRNLSLEITDGPCDLMVGDLSFISLKLTLPAIAACMSDGADLLPMVKPQFEVGKERLGHGGVVRDPKLRAEVTEDIALFAQQLGLSFVDVVASPLPGPSGNVEYFLWLKKDSGRSAKGLHEIHEKVAEAVQKGPQ | not soluble |
| MGSDKIHHHHHHLSNYINDLRQKVGNAPLILNTATGALFNNAGEVLLQERVDTKDWGFPGGYLEYGETYKKAIMREFQEDTGLSVIPEKLIQNTDDTFYKYPNGDQIQSINQFFLVRYLEGTLLSVKTGETTRLKYFKLDQPPQFFNEQHAEMFKKIQRMRE | not soluble |
